Assay results reported in patent US20250223280A1.
Bridges are numbered along the chain shown (N, C = ends). [ ]: non-standard residue; d: D form. Pro(4S-NH2) = N[C@@H]1CN[C@H](C(=O)O)C1

B1: Intermediate 30 (peptide)
peptide: cyclo(PDCAWHLGELVWCT[dP])
modifications: disulfide 3-13; not fully specified (residue 1)
B2: Compound 61 (peptide)
peptide: cyclo(PDCAWHLGELVWCT[dP])
modifications: disulfide 3-13; not fully specified (residue 1); also: conjugate: Intermediate 11 acylated with phenoxyacetic acid TFP ester carrying one 6-(trifluoromethyl)pyrazin-2-ylamino sugar
B3: Compound 66 (peptide)
peptide: cyclo(PDCAWHLGELVWCT[dP])
modifications: disulfide 3-13; not fully specified (residue 1); also: conjugate from starting material A138
B4: Compound 72 (peptide)
peptide: cyclo(PDCAWHLGELVWCT[dP])
modifications: disulfide 3-13; not fully specified (residue 1); also: conjugate from starting material A144
B5: Intermediate 14 (peptide)
peptide: cyclo([Pro(4S-NH2)]DCSWHLGELVWCT[dP])
modifications: disulfide 3-13
SMILES: CC(C)C[C@@H]1NC(=O)[C@H](Cc2c[nH]cn2)NC(=O)[C@H](Cc2c[nH]c3ccccc23)NC(=O)[C@H](CO)NC(=O)[C@@H]2CSSC[C@H](NC(=O)[C@H](Cc3c[nH]c4ccccc34)NC(=O)[C@H](C(C)C)NC(=O)[C@H](CC(C)C)NC(=O)[C@H](CCC(=O)O)NC(=O)CNC1=O)C(=O)N[C@@H]([C@@H](C)O)C(=O)N1CCC[C@@H]1C(=O)N1C[C@@H](N)C[C@H]1C(=O)N[C@@H](CC(=O)O)C(=O)N2
B6: Compound 91 (peptide)
peptide: PDCAWHLGELVWCTP
modifications: not fully specified; residue 1 = (2S,4R)-4-aminoproline; residue 15 = D-Pro; backbone cyclised head to tail; disulfide Cys3-Cys13; 4-amino group of residue 1 acylated with the linker to the ASGPR ligand
B7: Intermediate 13 (peptide)
peptide: cyclo([Pro(4S-NH2)]NCAWHLGELVWCT[dP])
modifications: disulfide 3-13
SMILES: CC(C)C[C@@H]1NC(=O)[C@H](Cc2c[nH]cn2)NC(=O)[C@H](Cc2c[nH]c3ccccc23)NC(=O)[C@H](C)NC(=O)[C@@H]2CSSC[C@H](NC(=O)[C@H](Cc3c[nH]c4ccccc34)NC(=O)[C@H](C(C)C)NC(=O)[C@H](CC(C)C)NC(=O)[C@H](CCC(=O)O)NC(=O)CNC1=O)C(=O)N[C@@H]([C@@H](C)O)C(=O)N1CCC[C@@H]1C(=O)N1C[C@@H](N)C[C@H]1C(=O)N[C@@H](CC(N)=O)C(=O)N2
B8: Intermediate 15 (peptide)
peptide: cyclo([Pro(4S-NH2)]ACSWHLGELVWCT[dP])
modifications: disulfide 3-13
SMILES: CC(C)C[C@@H]1NC(=O)[C@H](Cc2c[nH]cn2)NC(=O)[C@H](Cc2c[nH]c3ccccc23)NC(=O)[C@H](CO)NC(=O)[C@@H]2CSSC[C@H](NC(=O)[C@H](Cc3c[nH]c4ccccc34)NC(=O)[C@H](C(C)C)NC(=O)[C@H](CC(C)C)NC(=O)[C@H](CCC(=O)O)NC(=O)CNC1=O)C(=O)N[C@@H]([C@@H](C)O)C(=O)N1CCC[C@@H]1C(=O)N1C[C@@H](N)C[C@H]1C(=O)N[C@@H](C)C(=O)N2
B9: Intermediate 4 (peptide)
peptide: PDCAWHLGELVWCTP
modifications: residue 1 = (2S,4S)-4-aminoproline; residue 15 = D-Pro; backbone cyclised head to tail; disulfide Cys3-Cys13; 4-amino group of residue 1 acylated with PEG4-propanoyl capped by hex-5-ynamide
B10: Compound 51 (peptide)
peptide: cyclo(PDCAWHLGELVWCT[dP])
modifications: disulfide 3-13; not fully specified (residue 1); also: conjugate: hex-5-ynoyl peptide (Intermediate 48) clicked to one 6-(trifluoromethyl)pyrazin-2-ylamino sugar azide
B11: Compound 86 (peptide)
peptide: PDCAWHLGELVWCTP
modifications: residue 1 = (2S,4S)-4-aminoproline; residue 15 = D-Pro; backbone cyclised head to tail; disulfide Cys3-Cys13; 4-amino group of residue 1 acylated with the linker to the sugar ligands
B12: Compound 84 (peptide)
peptide: PDCAWHLGELVWCTP
modifications: residue 1 = (2S,4S)-4-aminoproline; residue 15 = D-Pro; backbone cyclised head to tail; disulfide Cys3-Cys13; 4-amino group of residue 1 acylated with the linker to the sugar ligands
B13: Compound 62 (peptide)
peptide: cyclo(PDCAWHLGELVWCT[dP])
modifications: disulfide 3-13; not fully specified (residue 1); also: conjugate from acid A32
B14: Compound 69 (peptide)
peptide: cyclo(PDCAWHLGELVWCT[dP])
modifications: disulfide 3-13; not fully specified (residue 1); also: conjugate from starting material A141
B15: Compound 94 (peptide)
peptide: cyclo(PDCAWHLGELVWCT[dP])
modifications: disulfide 3-13; not fully specified (residue 1); also: 4-amino group of residue 1 acylated with linker to ASGPR ligands
B16: Compound 80 (peptide)
peptide: PDCAWHLGELVWCTP
modifications: not fully specified; residue 1 = (2S,4S)-4-aminoproline; residue 15 = D-Pro; backbone cyclised head to tail; disulfide Cys3-Cys13; 4-amino group of residue 1 acylated with the butanoyl-triazole linker to the ASGPR ligand
B17: Intermediate 8 (peptide)
peptide: PDCAWHLGELVWCTP
modifications: residue 1 = (2S,4S)-4-aminoproline; residue 15 = D-Pro; backbone cyclised head to tail; disulfide Cys3-Cys13; 4-amino group of residue 1 acylated (linker only in a drawing; the mass fits hex-5-ynoyl)
B18: Intermediate 31 (peptide)
peptide: cyclo(PD[(S)‑2‑aminohex‑5‑enoic acid]AWHLGELVW[(S)‑2‑aminopent‑4‑enoic acid]T[dP])
modifications: staple 3-13
B19: Compound 64 (peptide)
peptide: cyclo(PDCAWHLGELVWCT[dP])
modifications: disulfide 3-13; not fully specified (residue 1); also: conjugate from starting material A125
B20: Compound 68 (peptide)
peptide: cyclo(PDCAWHLGELVWCT[dP])
modifications: disulfide 3-13; not fully specified (residue 1); also: 4-amino of residue 1 acylated with 4-(4-((4-(sugar-methyl)piperazin-1-yl)methyl)piperidin-1-yl)benzoic acid linker to ASGPR ligand (A140), one 6-(trifluoromethyl)pyrazin-2-ylamino sugar
B21: Compound 92 (peptide)
peptide: cyclo(PDCAWHLGELVWCT[dP])
modifications: disulfide 3-13; not fully specified (residue 1); also: linker and ASGPR ligand(s) not given here
B22: Compound 85 (peptide)
peptide: PDCAWHLGELVWCTP
modifications: residue 1 = (2S,4S)-4-aminoproline; residue 15 = D-Pro; backbone cyclised head to tail; disulfide Cys3-Cys13; 4-amino group of residue 1 acylated with the linker to the sugar ligands
B23: Intermediate 12 (peptide)
peptide: cyclo([Pro(4S-NH2)]ACAWHLGELVWCT[dP])
modifications: disulfide 3-13
SMILES: CC(C)C[C@@H]1NC(=O)[C@H](Cc2c[nH]cn2)NC(=O)[C@H](Cc2c[nH]c3ccccc23)NC(=O)[C@H](C)NC(=O)[C@@H]2CSSC[C@H](NC(=O)[C@H](Cc3c[nH]c4ccccc34)NC(=O)[C@H](C(C)C)NC(=O)[C@H](CC(C)C)NC(=O)[C@H](CCC(=O)O)NC(=O)CNC1=O)C(=O)N[C@@H]([C@@H](C)O)C(=O)N1CCC[C@@H]1C(=O)N1C[C@@H](N)C[C@H]1C(=O)N[C@@H](C)C(=O)N2
B24: Compound 53 (peptide)
peptide: cyclo(PDCAWHLGELVWCT[dP])
modifications: disulfide 3-13; not fully specified (residue 1); also: conjugate: hex-5-ynoyl peptide clicked to azide A18
B25: Compound 63 (peptide)
peptide: cyclo(PDCAWHLGELVWCT[dP])
modifications: disulfide 3-13; not fully specified (residue 1); also: conjugate from starting material A40
B26: Compound 67 (peptide)
peptide: cyclo(PDCAWHLGELVWCT[dP])
modifications: disulfide 3-13; not fully specified (residue 1); also: conjugate from starting material A139
B27: Compound 95 (peptide)
peptide: cyclo(PDCAWHLGELVWCT[dP])
modifications: disulfide 3-13; not fully specified (residue 1); also: 4-amino group of residue 1 acylated with linker to ASGPR ligands
B28: Compound 65 (peptide)
peptide: cyclo(PDCAWHLGELVWCT[dP])
modifications: disulfide 3-13; not fully specified (residue 1); also: conjugate from starting material A137, ligand number not given here
B29: Compound 52 (peptide)
peptide: cyclo(PDCAWHLGELVWCT[dP])
modifications: disulfide 3-13; not fully specified (residue 1); also: conjugate: hex-5-ynoyl peptide clicked to azide A2
B30: Intermediate 9 (peptide)
peptide: cyclo(PDCAWHLGELVWCT[dP])
modifications: disulfide 3-13; not fully specified (residue 1)
B31: Intermediate 5 (peptide)
peptide: PDCAWHLGELVWCTP
modifications: residue 1 = (2S,4S)-4-aminoproline (free 4-amino group); residue 15 = D-Pro; backbone cyclised head to tail; disulfide Cys3-Cys13
B32: Intermediate 6 (peptide)
peptide: PDCAWHLGELVWCTP
modifications: residue 1 = (2S,4S)-4-aminoproline; residue 15 = D-Pro; backbone cyclised head to tail; disulfide Cys3-Cys13; 4-amino group of residue 1 acylated with PEG2-propanoyl capped by hex-5-ynamide
B33: Intermediate 7 (peptide)
peptide: PDCAWHLGELVWCTP
modifications: residue 1 = (2S,4S)-4-aminoproline; residue 15 = D-Pro; backbone cyclised head to tail; disulfide Cys3-Cys13; 4-amino group of residue 1 acylated with 3-(2-(hex-5-ynamido)ethoxy)propanoyl

biological target: IgG; assay: SPR, IgG immobilised on CM5 chip, compound as analyte; value from the legend of the grade (**** = Kd <100 nM)

Kd [µM]	Binder
< 0.1	B1
< 0.1	B2
< 0.1	B3
< 0.1	B4
< 0.1	B5
< 0.1	B6
< 0.1	B7
< 0.1	B8
< 0.1	B9
< 0.1	B10
< 0.1	B11
< 0.1	B12
< 0.1	B13
< 0.1	B14
< 0.1	B15
< 0.1	B16
< 0.1	B17
< 0.1	B18
< 0.1	B19
< 0.1	B20
< 0.1	B21
< 0.1	B22
< 0.1	B23
< 0.1	B24
< 0.1	B25
< 0.1	B26
< 0.1	B27
< 0.1	B28

biological target: IgG; assay: SPR, IgG immobilised on CM5 chip, compound as analyte; value from the legend of the grade (++++ = Kd <100 nM)

Kd [µM]	Binder
< 0.1	B29
< 0.1	B7
< 0.1	B8
< 0.1	B9
< 0.1	B30
< 0.1	B31
< 0.1	B23
< 0.1	B24
< 0.1	B32
< 0.1	B33
